# Literature values in paper PMC4859759.
# Biological target: VEGFR2 IgG domains 3-5 (Homo sapiens) (UniProt P35968)
# Sequence (P35968 224-548): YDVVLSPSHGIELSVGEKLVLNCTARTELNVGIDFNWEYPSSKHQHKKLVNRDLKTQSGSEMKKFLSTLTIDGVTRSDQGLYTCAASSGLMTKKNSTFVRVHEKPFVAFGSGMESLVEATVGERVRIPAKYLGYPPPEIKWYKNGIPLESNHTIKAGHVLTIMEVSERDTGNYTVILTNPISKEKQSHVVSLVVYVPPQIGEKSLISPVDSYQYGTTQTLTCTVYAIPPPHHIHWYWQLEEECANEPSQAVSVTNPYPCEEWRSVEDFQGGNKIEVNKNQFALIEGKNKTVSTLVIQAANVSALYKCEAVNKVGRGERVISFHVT
# Chain of endorepellin (perlecan) LG1/2 (P98160 3687-4103): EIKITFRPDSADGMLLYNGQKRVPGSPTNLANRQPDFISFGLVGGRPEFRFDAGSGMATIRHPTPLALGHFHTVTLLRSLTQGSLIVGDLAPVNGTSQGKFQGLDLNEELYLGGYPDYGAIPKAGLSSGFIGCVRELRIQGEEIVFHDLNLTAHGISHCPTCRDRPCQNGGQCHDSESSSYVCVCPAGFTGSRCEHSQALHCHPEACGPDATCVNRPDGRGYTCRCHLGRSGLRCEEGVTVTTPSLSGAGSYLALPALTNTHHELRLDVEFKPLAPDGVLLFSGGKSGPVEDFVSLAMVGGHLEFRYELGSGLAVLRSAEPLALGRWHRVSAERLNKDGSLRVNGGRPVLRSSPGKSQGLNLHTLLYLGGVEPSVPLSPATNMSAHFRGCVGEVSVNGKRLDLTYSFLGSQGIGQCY
substance,measurement,value
endorepellin (perlecan) LG1/2 (from UniProt P98160),Kd,2.8 nM
